Values of other authors in paper PMC12193198.

Biological target: transferrin receptor (TfR) (Homo sapiens) (UniProt P02786)
Sequence (P02786 89-760): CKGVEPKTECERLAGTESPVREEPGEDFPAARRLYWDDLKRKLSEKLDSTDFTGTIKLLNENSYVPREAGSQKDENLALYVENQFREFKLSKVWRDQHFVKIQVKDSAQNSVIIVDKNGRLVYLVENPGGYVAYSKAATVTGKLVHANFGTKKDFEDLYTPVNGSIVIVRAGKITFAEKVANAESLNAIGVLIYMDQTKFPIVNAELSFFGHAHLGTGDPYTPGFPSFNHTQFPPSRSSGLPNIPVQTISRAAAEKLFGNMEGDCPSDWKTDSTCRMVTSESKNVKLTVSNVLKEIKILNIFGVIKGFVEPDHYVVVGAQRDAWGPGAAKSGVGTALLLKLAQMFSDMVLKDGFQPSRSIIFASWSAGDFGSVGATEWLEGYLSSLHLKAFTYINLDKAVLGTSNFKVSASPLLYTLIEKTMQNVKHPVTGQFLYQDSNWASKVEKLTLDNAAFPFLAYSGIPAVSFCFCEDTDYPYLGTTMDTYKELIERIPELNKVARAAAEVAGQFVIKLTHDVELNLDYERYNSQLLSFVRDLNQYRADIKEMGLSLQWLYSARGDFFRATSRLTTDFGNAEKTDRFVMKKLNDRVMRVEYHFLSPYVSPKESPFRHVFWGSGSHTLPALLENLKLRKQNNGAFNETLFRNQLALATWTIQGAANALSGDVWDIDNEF

In the case of T7 peptide, the Kd is listed as 0.01 µM.
